Results as given in PMC9775220, “Distal Mutations Shape Substrate-Binding Sites during Evolution of a Metallo-Oxidase into a Laccase” (ACS Catalysis, 2022).
Where a chain is given by its changes, count along the chain named. Names and notes keep the numbering of the source.

B1: McoA (wild type) (Aquifex aeolicus VF5; DEL329-352/F55S/I199T/I441L/M449T/P58S/R471G) (protein)
chain: LSKQSLNIPGYSLFSDGQRVSITAKWTTLEVIPGKSTDMLVYEIDNEYNPVIFLRKGQTFSADFVNNSGEDSIIHWHGFRAPWKSDGHPYYAVKDGETYSYPDFTIIDRSGTYFYHPHPHGRTGYQVYYGLAGMIIIEDEDEDNLKQALDLEYGVTDIPLIIQDKTFDSSGQLVYNPMGHMGFWGDTILVNLTPNPYMDVERKIYRFRILNGSNARPYRLALLRGNQRMRFWVIGVEGGLLDTPKEVNEILVAPGERIDILVDFRDASVNDVIKLYNFPHNLIGMMGMADNSEFEVMEFRVTKDSAYDKSIPQRLSEVTPINTDGAQVQRITLGMRRMVFTINGETWEDGYANPQDINNPKVLFEQNNGDVVILEYVNNTGTYHPMHIHGFQFQVLERSLGPLGATDLGWKDTVIVAPMETVRIAVDMSHPYNEHQIYLLHCHILEHHDEGMMVNYRVNA
notes: 43-residue N-terminal Tat signal peptide removed in 2B3wsp and the shuffling parents (stated for wild type); expressed in E. coli Tuner delta-cueO from pET-21a(+); purified, Cu-loaded in vitro; monomer
B2: McoA (wild type) (Aquifex aeolicus VF5; F55S/I199T/I441L/M449T/P58S/R471G) (protein)
chain: LSKQSLNIPGYSLFSDGQRVSITAKWTTLEVIPGKSTDMLVYEIDNEYNPVIFLRKGQTFSADFVNNSGEDSIIHWHGFRAPWKSDGHPYYAVKDGETYSYPDFTIIDRSGTYFYHPHPHGRTGYQVYYGLAGMIIIEDEDEDNLKQALDLEYGVTDIPLIIQDKTFDSSGQLVYNPMGHMGFWGDTILVNLTPNPYMDVERKIYRFRILNGSNARPYRLALLRGNQRMRFWVIGVEGGLLDTPKEVNEILVAPGERIDILVDFRDASVNDVIKLYNFPHNLIGMGMIGMRMGMGMERGMGMGNGMNMDMGMADNSEFEVMEFRVTKDSAYDKSIPQRLSEVTPINTDGAQVQRITLGMRRMVFTINGETWEDGYANPQDINNPKVLFEQNNGDVVILEYVNNTGTYHPMHIHGFQFQVLERSLGPLGATDLGWKDTVIVAPMETVRIAVDMSHPYNEHQIYLLHCHILEHHDEGMMVNYRVNA
notes: as for B1
B3: McoA (wild type) (Aquifex aeolicus VF5; F55S) (protein)
chain: B2 chain with S15P, T156I, L398I, T406M, G428R
notes: as for B1
B4: McoA (wild type) (Aquifex aeolicus VF5; F55S/I199T/I441L/M449T/P58S) (protein)
chain: B2 chain with G428R
notes: as for B1
B5: McoA (wild type) (Aquifex aeolicus VF5; P58S) (protein)
chain: B2 chain with S12F, T156I, L398I, T406M, G428R
notes: as for B1
B6: McoA (wild type) (Aquifex aeolicus VF5; I441L) (protein)
chain: B2 chain with S12F, S15P, T156I, T406M, G428R
notes: as for B1
B7: McoA (wild type) (Aquifex aeolicus VF5; F55S/I199T/I441L/P58S/R471G) (protein)
chain: B2 chain with T406M
notes: as for B1
B8: McoA (wild type) (Aquifex aeolicus VF5) (protein)
chain: B2 chain with S12F, S15P, T156I, L398I, T406M, G428R
notes: as for B1
B9: McoA (wild type) (Aquifex aeolicus VF5; M449T) (protein)
chain: B2 chain with S12F, S15P, T156I, L398I, G428R
notes: as for B1
B10: McoA (wild type) (Aquifex aeolicus VF5; I199T) (protein)
chain: B2 chain with S12F, S15P, L398I, T406M, G428R
notes: as for B1
B11: McoA (wild type) (Aquifex aeolicus VF5; R471G) (protein)
chain: B2 chain with S12F, S15P, T156I, L398I, T406M
notes: as for B1

Substrate: CCn1c(=NN=c2sc3cc(S(=O)(=O)O)ccc3n2CC)sc2cc(S(=O)(=O)O)ccc21
Assay: purified protein
Type: biochemical, Aquifex aeolicus
Settings: pH 4, 40 °C
[1] = 2F4-loop 5 (Met-loop cut to five residues)

Row | Protein | Km (wild-type background) [µM] | kcat (wild-type background) [s⁻¹] | other results
1 | B1 | – | – | Km [1]: 3800 ± 600 µM; kcat [1]: 133 ± 20 s⁻¹
2 | B2 | – | – | Km (evolved variant 2F4): 1500 ± 400 µM; kcat (evolved variant 2F4): 273 ± 9 s⁻¹
3 | B3 | 2400 ± 400 | 67 ± 4 | –
4 | B4 | – | – | Km (reversion G471R in 2F4): 6000 ± 1000 µM; kcat (reversion G471R in 2F4): 235 ± 9 s⁻¹
5 | B5 | 2500 ± 200 | 75 ± 3 | –
6 | B6 | 1500 ± 200 | 79 ± 5 | –
7 | B7 | – | – | Km (reversion T449M in 2F4): 3100 ± 900 µM; kcat (reversion T449M in 2F4): 99 ± 8 s⁻¹
8 | B8 | – | – | Km: 1300 ± 200 µM; kcat: 25 ± 3 s⁻¹
9 | B9 | 1000 ± 100 | 27 ± 1 | –
10 | B10 | 900 ± 200 | 27 ± 5 | –
11 | B11 | 2300 ± 200 | 98 ± 4 | –
